Assay results published in patent US20220298229A1 (ICHOR BIOLOGICS, published 2022).

How the values were obtained:
[1] = target: T1, ANDV glycoprotein (GPC), glycoproteins Gn and Gc of hantavirus strain Chile-9717869 (Andes Virus (hantavirus strain …, UniProt Q9E006 19-1138)); experiment: cell-based or functional assay
T1 sequence: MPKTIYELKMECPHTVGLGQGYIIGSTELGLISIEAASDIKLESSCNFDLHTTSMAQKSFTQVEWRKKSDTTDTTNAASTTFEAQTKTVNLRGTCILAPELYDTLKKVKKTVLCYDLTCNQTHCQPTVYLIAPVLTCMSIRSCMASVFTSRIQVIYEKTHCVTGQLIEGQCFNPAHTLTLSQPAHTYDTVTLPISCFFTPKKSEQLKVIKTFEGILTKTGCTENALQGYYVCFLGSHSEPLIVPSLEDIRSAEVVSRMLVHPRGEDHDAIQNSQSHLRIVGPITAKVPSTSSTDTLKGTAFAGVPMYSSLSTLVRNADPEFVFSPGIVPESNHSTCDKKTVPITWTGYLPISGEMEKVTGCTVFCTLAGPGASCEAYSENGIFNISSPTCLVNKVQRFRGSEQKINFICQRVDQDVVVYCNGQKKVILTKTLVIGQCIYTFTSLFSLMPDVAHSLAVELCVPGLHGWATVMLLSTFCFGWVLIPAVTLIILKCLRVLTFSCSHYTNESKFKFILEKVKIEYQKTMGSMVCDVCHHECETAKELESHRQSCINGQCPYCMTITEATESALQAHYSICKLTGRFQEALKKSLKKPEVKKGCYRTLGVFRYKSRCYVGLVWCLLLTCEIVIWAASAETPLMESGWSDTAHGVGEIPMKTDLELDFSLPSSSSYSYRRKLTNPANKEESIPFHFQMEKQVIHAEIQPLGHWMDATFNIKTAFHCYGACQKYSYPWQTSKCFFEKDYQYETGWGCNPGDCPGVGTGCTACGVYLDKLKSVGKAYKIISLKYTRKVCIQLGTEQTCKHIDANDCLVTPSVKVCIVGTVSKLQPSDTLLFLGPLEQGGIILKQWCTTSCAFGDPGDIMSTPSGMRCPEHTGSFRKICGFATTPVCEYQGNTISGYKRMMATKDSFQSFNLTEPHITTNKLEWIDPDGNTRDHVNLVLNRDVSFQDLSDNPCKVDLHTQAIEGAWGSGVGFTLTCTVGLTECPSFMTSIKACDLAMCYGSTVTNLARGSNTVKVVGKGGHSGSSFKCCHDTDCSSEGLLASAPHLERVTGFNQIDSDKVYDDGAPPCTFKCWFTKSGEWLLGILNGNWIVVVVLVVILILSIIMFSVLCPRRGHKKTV

[2] = target: T1, ANDV glycoprotein (GPC), glycoproteins …

B1: monoclonal antibody MIB22 (antibody, V domains shown)
VH: EVQLVQSGAELKKPGSSVKVSCKASGGTFVGYGVSWVRQVPGHGPEWMGGFSPISNTANYAERFQGRVTMIVDGSTSTAYMELRSLRSEDTAIYYCARSCDFWNAYYNNWFDPWGQGTLVTVSS
VL: AQSALTQPASVSGSPGQSITISCTGTSSDFADYNSVSWYQQHPGKAPKLLIFDVNDRPSGVSHRFSGSKSGNTASLTISGLQAEDESDYYCTSYTICNSYVFGTGTKVTVLG
notes: also called MIB22 IgG; first antibody
neutralization capacity relative to JL16 [1]: 31 fold | potency of ANDV neutralization relative to polyclonal IgG from P10 [1]: 67 fold | EC50 [2]: 3.38 µg/mL
